Positions count from the first letter of the chain named. Like-named read-outs stand apart in the source and are kept apart here.

One experiment has as its target T1, human CD3 epsilon (human, UniProt P07766 23-126, limits assumed).
T1 construct: also called hCD3; hCD3 epsilon
Put plainly: affinity of IgG; method not stated; human CD3 epsilon.

Experiment [1] has as its target T2, hCRTH2R (human, UniProt Q9Y5Y4 1-395).
T2 construct: whole, on cells; h is read as human
T2 sequence (looked up): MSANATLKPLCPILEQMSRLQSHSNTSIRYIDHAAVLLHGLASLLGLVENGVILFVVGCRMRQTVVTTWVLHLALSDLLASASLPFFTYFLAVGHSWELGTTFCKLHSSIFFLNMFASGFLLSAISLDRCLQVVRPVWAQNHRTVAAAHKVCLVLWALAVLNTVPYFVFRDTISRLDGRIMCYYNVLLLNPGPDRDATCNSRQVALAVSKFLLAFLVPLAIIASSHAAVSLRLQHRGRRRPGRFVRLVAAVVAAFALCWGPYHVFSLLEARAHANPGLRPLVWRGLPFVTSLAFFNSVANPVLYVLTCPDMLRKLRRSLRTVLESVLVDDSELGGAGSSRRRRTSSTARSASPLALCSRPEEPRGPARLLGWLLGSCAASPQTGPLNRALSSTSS
As to the kind of experiment: flow cytometry (MFI) cell binding titration, upper grey curve; cell lines not labelled on the sheet. On the technique in general: A flow cytometer gives signals particle by particle.

For experiment [2], the target named is T2, hCRTH2R. Put plainly: cell-based or functional assay.
The target in experiment [3] is T2, hCRTH2R. As to the kind of experiment: flow cytometry (MFI) cell binding titration; number in grey print, taken with the upper grey curve; the sheet does not label the cell lines of the two curves.
Experiment [4] deals with T2, hCRTH2R. Put plainly: cell-based or functional assay. The source holds these as a separate data set.
For experiment [5], the target named is T2, hCRTH2R. Put plainly: flow cytometry (MFI) cell binding titration; number in grey print, taken with the upper grey curve; the sheet does not label the cell lines of the two curves. This is another data set of the same source.
Experiment [6] addresses T2, hCRTH2R. As to the kind of experiment: cell-based or functional assay. The source holds these as a separate data set.
Experiment [7] has as its target T2, hCRTH2R. Put plainly: flow cytometry (MFI) cell binding titration; number in grey print, taken with the upper grey curve; the sheet does not label the cell lines of the two curves. This is another data set of the same source.
Experiment [8] addresses T3, CRTH2R (UniProt Q9Y5Y4 1-395, limits assumed).
T3 construct: whole, on cells; also called Prostaglandin D2 receptor 2 (DP2 or CRTH2) receptor
T3 sequence (looked up): T2 sequence (looked up)
Put plainly: flow cytometry (MFI), CHO CRTH2R-positive cells against parental CHO cells, 3-fold titration from 100 nM; grey = CRTH2R cells, black = parental cells (no legend on the panel). The procedure: (§1) Cell binding of anti-CRTH2R antibodies was determined by testing on CHO CRTH2R-positive cells (GFP+) and parental CHO cells (GFP−), comparing parental negative and target positive cells to rule out false-positives. Antibodies as listed in Table 14A were titrated starting at 100 nM (15 ug/mL) with 3-fold titrations, for a total of 8 points. Two antibodies (gPCR-51 and gPCR-52) were used as a positive control.

Experiment [9] deals with T3, CRTH2R. As to the kind of experiment: cell-based or functional assay.
For experiment [10], the target named is T3, CRTH2R. As to the kind of experiment: flow cytometry (MFI), CHO CRTH2R-positive cells against parental CHO cells; same panel as in FIG. 15B; grey = CRTH2R cells, black = parental cells (no legend on the panel). The protocol: as §1
Experiment [11] addresses T3, CRTH2R. As to the kind of experiment: flow cytometry (MFI), titration 0.05-100 nM on CRTH2R cells against parent cells; no legend on the panel: grey curve and grey EC50 taken as the CRTH2R cells, black (ND) as the parent cells.
Experiment [12] deals with T3, CRTH2R. As to the kind of experiment: cell-based or functional assay. This is another data set of the same source.
Experiment [13] concerns the target T3, CRTH2R. Put plainly: flow cytometry (MFI), CHO CRTH2R-positive cells against parental CHO cells; same panel as in FIG. 15E; grey = CRTH2R cells, black = parental cells (no legend on the panel). The procedure: as §1
In experiment [14] the target is T3, CRTH2R. Put plainly: flow cytometry (MFI), CHO CRTH2R-positive cells against parental CHO cells; same panel as in FIG. 15C; grey = CRTH2R cells, black = parental cells (no legend on the panel). The procedure:
as §1

T1 sequence (P07766 23-126 limits assumed): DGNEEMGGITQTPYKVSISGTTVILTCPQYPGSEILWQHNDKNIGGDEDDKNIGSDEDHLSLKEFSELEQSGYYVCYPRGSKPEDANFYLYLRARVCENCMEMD

B1: CD3-56-05 (antibody, V domains shown)
VH: EVQLLESGGGLVQPGGSLRLSCAASGFTFSSYAMNWVRQAPGKGLEWVSAVSGSGGRTYYADSVKGRFTISRDNSKNTLYLQMNSLRAEDTAVYYCARERATTLDYWGQGTLVTVSS
VL: DIQMTQSPSSLSASVGDRVTITCRASQTIYSHLNWYQQKPGKAPKLLIYVASRLQSGVPSRFSGSGSGTDFTLTISSLQPEDFATYYCQQSFSTSWTFGGGTKVEIK
notes: IgG; also called CD3-56-5
B1 returned a Kd in the experiment with human CD3 epsilon of 0.067 µM.

B2: CRTH2-48-3 (antibody, V domains shown)
VH: EVQLVESGGGLVQAGGSLRLSCAASGSIFRINAMGWFRQAPGKEREGVAAINNFGTTKYADSVKGRFTISADNAKNTVYLQMNSLKPEDTAVYYCAAVRWGPRNDDRYDWGQGTQVTVSS
VL: DIQMTQSPSSLSASVGDRVTITCRASQSISSDLNWYQQKPGKAPKLLIYFASGLQSGVPSRFSGSGSGTDFTLTISSLQPEDFATYYCQQSYSSPLTFGGGTKVEIKR
notes: CRTH2R immunoglobulin (IgG); also called CRTH2-48-03
For the molecule B2, in the experiment with hCRTH2R [1], the 50% effective concentration (EC50 (read off the curve)) was around 0.002 µM. Besides, the “IC50 of PGD2 in the CRTH2 DiscoverX cAMP assay after 200nM IgG pre-incubation (+ no Ab: 0.2487), the axis reads PGD2” value with hCRTH2R [2] stood at 0.000356 µM. For the same molecule, it took 0.000579 µM to reach a half-maximal effect with hCRTH2R [3] (EC50).

B3: CRTH2-48-21 (antibody, V domains shown)
VH: EVQLVESGGGLVQAGGSLRLSCAASGSFFSINAMGWFRQAPGKEREFVAGITRSGVSTSYADSVKGRFTISADNAKNTVYLQMNSLKPEDTAVYYCAAHRIVVGGTSVGDWRWGQGTQVTVSS
VL: B2 VL with A25T, S31N, D32Y, F50A, A51T, G53S, Q55E, S94T, P95L
notes: CRTH2R immunoglobulin (IgG)
Consider B3, for which the “IC50 of PGD2 in the CRTH2 DiscoverX cAMP assay after 200nM IgG pre-incubation (+ no Ab: 0.4559), the axis reads PGD2” value in the experiment with hCRTH2R [4] was found to be 0.000567 µM. This molecule had a 50% effective concentration (EC50) with hCRTH2R [5] of 0.00132 µM.

B4: CRTH2-48-27 (antibody, V domains shown)
VH: B2 VH with R30H, D72N, Q115L
VL: B2 VL with S31R, D32Y, N34H, F50G, G53R, Q55E, Q89R, S94T, L96W
notes: CRTH2R immunoglobulin (IgG)
On to B4, for which, in the experiment with hCRTH2R [6], the “IC50 of PGD2 in the CRTH2 DiscoverX cAMP assay after 200nM IgG pre-incubation (+ no Ab: 0.4559), the axis reads PGD2” value turned out to be 0.000407 µM. For the same molecule, the EC50 with hCRTH2R [7] came to 0.000859 µM.

B5: CRTH2-9 (antibody, V domains shown)
VH: QVQLVQSGAEVKKPGSSVKVSCKASGGTFSSYAISWVRQAPGQGLEWMGGIIPIFGTANYAQKFQGRVTITADESTSTAYMELSSLRSEDTAVYYCARDMYYDFWLGDQSTGSLIGAEVVPADDAFDIWGQGTLVTVSS
VL: QSVLTQPPSVSAAPGQKVTISCSGSTSNIGNNYVSWYQQLPGTAPKLLIYENDERPSGIPDRFSGSKSGTSATLGITGLQTGDEADYYCATWDTRLSAVVFGGGTKLTVL
notes: CRTH2R IgG
As to B5, the concentration giving a half-maximal response (EC50) with CRTH2R [8] stood at 0.0149 µM. Further, in the experiment with CRTH2R [9], the “IC50 fold difference of the PGD2 dose response (cAMP) with 100 nM IgG” value (“IC50 fold difference” below) is above 2 fold and the “antagonist activity in PGD2-induced cAMP assay at 33 nM IgG” value is above 20%. Also, in the experiment with CRTH2R [10], the EC50 worked out at 0.0149 µM.

B6: CRTH2-27 (antibody, V domains shown)
VH: QVQLVESGGGVVQPGRSLRLSCAASGFTFDNYGMHWVRQAPGKGLEWVAVISYEGSNKKYADSVKGRFTISRDNSKNTLYLQMNSLRAEDTAVYYCARDMYYDFGSIYGEDVVGELPEVVPADDAFDIWGQGTLVTVSS
VL: QSALTQPASVSGSPGQSITISCTGTSNDVGAYNFVSWYQQHPGKAPKLMIYDISNRPSGVSNRFSGSKSGNTASLTISGLQAEDEADYYCSSYTRSNTRVFGGGTKLTVL
notes: CRTH2R IgG
Consider B6, for which the EC50 with CRTH2R [8] and in the experiment with CRTH2R [10] was 0.042 µM in each case. In addition, in the experiment with CRTH2R [9], the “IC50 fold difference” value was above 2 fold.

B7: CRTH2-41-51 (Fc fusion, not shown: a dimerising Fc or GST)
chain: EVQLVESGGGLVQPGGSLRLSCAASGGIFRFNAMGWFRQAPGKERELVAGISGSGGDTYYADSVKGRFTISADNSKNTAYLQMNSLKPEDTAVYYCAAFRGIMRPDWGQGTLVTVSS
Regarding B7, the half-maximal effective concentration (EC50) with CRTH2R [11] is 0.000181 µM. Moreover, in the experiment with CRTH2R [12], the “IC50 fold diff. of the PGD2 dose response in the CRTH2 DiscoverX allosteric cAMP assay (+ CRTH2-41-51-VHH against + no Ab)” value stood at 2.18 fold.

B8: CRTH2-50 (antibody, V domains shown)
VH: QVQLVQSGAEVKKPGSSVKVSCKASGGTFSSYALSWVRKAPGQGLEWMGGTIPIFGTVNYAQKFQGRVTITADESTSTAYMELSSLRSEDTAVYYCARANQHFTRVIGQPSPAVPSRGYIYHGYHYYGMDVWGQGTLVTVSS
VL: QSALTQPASVSGSPGQSITISCTGTSSDIGGYNFVSWYQQHPGKAPKLMIYDVSNRPQGVSNRFSGSKSGNTASLTISGLQAEDEADYYCSSYTSSNTYVVFGGGTKLTVL
notes: CRTH2R IgG
Regarding B8, the EC50 with CRTH2R [8] and with CRTH2R [13] was 0.0196 µM throughout. Besides, in the experiment with CRTH2R [9], the “IC50 fold difference” value is above 2 fold.

B9: CRTH2-32 (antibody, V domains shown)
VH: QVQLVESGGGVVQPGRSLRLSCAASGFTFSKHGMHWVRQAPGKGLEWVAFISYEGSEKYYADSVKGRFTISRDNSKNTLYLQMNSLRAEDTAVYYCARDMYYDFHYSTVGATYYYYLGSETEVVPADDAFDIWGQGTLVTVSS
VL: QSALTQPASVSGSPGQSITISCTGTSSGVGGYDYVSWYQQHPGKAPKLMIYDDNNRPSGVSNRFSGSKSGNTASLTISGLQAEDEADYYCSSYTGSSTLYVFGGGTKLTVL
notes: CRTH2R IgG
For the molecule B9, the EC50 with CRTH2R [14] and with CRTH2R [8] was 0.0124 µM throughout. Moreover, the “IC50 fold difference” value in the experiment with CRTH2R [9] was above 2 fold.

One may read the Kd as the concentration at which binding is half-saturated. Lower therefore signals tighter binding. Broadly, the EC50 (read off the curve) is the concentration needed to bring the measured effect to its halfway point. Read a low EC50 (read off the curve) as higher potency in that assay. The term EC50 denotes the concentration needed to bring the measured effect to its halfway point.
